B1: EGFRvIII antibody P063.056, human IgG1 PGLALA (antibody, V domains shown)
VH: EVQLVQSGAEVKKPGESLKISCKGSGYSFDSYWIAWVRQMPGKGLEWMGVIHPYDSDTRYSPSFQGQVTISADKSISTAYLQWSSLKASDTAMYYCARVSRSSYAFDYWGQGTLVTVSS
VL: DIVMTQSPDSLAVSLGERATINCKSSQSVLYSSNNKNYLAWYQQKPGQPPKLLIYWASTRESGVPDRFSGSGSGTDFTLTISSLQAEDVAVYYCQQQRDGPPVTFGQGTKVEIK
notes: Anti-EGFRvIII PGLALA IgG
B2: EGFRvIII TCB P056.021 (CD3orig) (bispecific antibody, V domains shown)
VH 1: EVQLVQSGAEVKKPGESLKISCKGSGYSFDSYWIAWVRQMPGKGLEWMGVIHPYDSDTRYSPSFQGQVTISADKSISTAYLQWSSLKASDTAMYYCARVSRSSYAFDYWGQGTLVTVSS
VL 1: not shown
VH 2: not shown
VL 2: QAVVTQEPSLTVSPGGTVTLTCGSSTGAVTTSNYANWVQEKPGQAFRGLIGGTNKRAPGTPARFSGSLLGGKAALTLSGAQPEDEAEYYCALWYSNLWVFGGGTKLTVL
notes: also called parental EGFRvIII TCB P056.021; P056.021 EGFRvIII TCB with CD3orig
B3: TYRP1 TCB CD3opt (bispecific antibody, human IgG1, kappa, L234A L235A)
heavy 1: not shown
heavy 2: QVQLVQSGAEVKKPGASVKVSCKASGFNIKDYFLHWVRQAPGQGLEWMGWINPDNGNTVYAQKFQGRVTMTADTSTSTVYMELSSLRSEDTAVYYCTRRDYTYEKAALDYWGQGTLVTVSSASTKGPSVFPLAPSSKSTSGGTAALGCLVEDYFPEPVTVSWNSGALTSGVHTFPAVLQSSGLYSLSSVVTVPSSSLGTQTYICNVNHKPSNTKVDEKVEPKSCDKTHTCPPCPAPEAAGGPSVFLFPPKPKDTLMISRTPEVTCVVVDVSHEDPEVKFNWYVDGVEVHNAKTKPREEQYNSTYRVVSVLTVLHQDWLNGKEYKCKVSNKALGAPIEKTISKAKGQPREPQVCTLPPSRDELTKNQVSLSCAVKGFYPSDIAVEWESNGQPENNYKTTPPVLDSDGSFFLVSKLTVDKSRWQQGNVFSCSVMHEALHNHYTQKSLSLSP
light 1: DIQMTQSPSSLSASVGDRVTITCRASGNIYNYLAWYQQKPGKVPKLLIYDAKTLADGVPSRFSGSGSGTDFTLTISSLQPEDVATYYCQHFWSLPFTFGQGTKLEIKRTVAAPSVFIFPPSDRKLKSGTASVVCLLNNFYPREAKVQWKVDNALQSGNSQESVTEQDSKDSTYSLSSTLTLSKADYEKHKVYACEVTHQGLSSPVTKSFNRGEC
light 2: EVQLLESGGGLVQPGGSLRLSCAASGFQFSSYAMNWVRQAPGKGLEWVSRIRSKYNNYATYYADSVKGRFTISRDDSKNTLYLQMNSLRAEDTAVYYCVRHTTFPSSYVSYYGYWGQGTLVTVSSASVAAPSVFIFPPSDEQLKSGTASVVCLLNNFYPREAKVQWKVDNALQSGNSQESVTEQDSKDSTYSLSSTLTLSKADYEKHKVYACEVTHQGLSSPVTKSFNRGEC
B4: EGFRvIII TCB CD3orig (EGFRvIII binder P063.056) (bispecific antibody, human IgG1, kappa, L234A L235A)
heavy 1: not shown
heavy 2: EVQLVQSGAEVKKPGESLKISCKGSGYSFDSYWIAWVRQMPGKGLEWMGVIHPYDSDTRYSPSFQGQVTISADKSISTAYLQWSSLKASDTAMYYCARVSRSSYAFDYWGQGTLVTVSSASTKGPSVFPLAPSSKSTSGGTAALGCLVEDYFPEPVTVSWNSGALTSGVHTFPAVLQSSGLYSLSSVVTVPSSSLGTQTYICNVNHKPSNTKVDEKVEPKSCDKTHTCPPCPAPEAAGGPSVFLFPPKPKDTLMISRTPEVTCVVVDVSHEDPEVKFNWYVDGVEVHNAKTKPREEQYNSTYRVVSVLTVLHQDWLNGKEYKCKVSNKALGAPIEKTISKAKGQPREPQVCTLPPSRDELTKNQVSLSCAVKGFYPSDIAVEWESNGQPENNYKTTPPVLDSDGSFFLVSKLTVDKSRWQQGNVFSCSVMHEALHNHYTQKSLSLSP
light 1: not shown
light 2: EVQLLESGGGLVQPGGSLRLSCAASGFTFSTYAMNWVRQAPGKGLEWVSRIRSKYNNYATYYADSVKGRFTISRDDSKNTLYLQMNSLRAEDTAVYYCVRHGNFGNSYVSWFAYWGQGTLVTVSSASVAAPSVFIFPPSDEQLKSGTASVVCLLNNFYPREAKVQWKVDNALQSGNSQESVTEQDSKDSTYSLSSTLTLSKADYEKHKVYACEVTHQGLSSPVTKSFNRGEC
notes: 2+1 IgG CrossFab, inverted, with charge modifications; also called EGFRvIII TCB P063.056 with CD3orig
B5: TYRP1 TCB CD3orig (bispecific antibody, human IgG1, kappa, L234A L235A)
heavy 1: not shown
heavy 2: QVQLVQSGAEVKKPGASVKVSCKASGFNIKDYFLHWVRQAPGQGLEWMGWINPDNGNTVYAQKFQGRVTMTADTSTSTVYMELSSLRSEDTAVYYCTRRDYTYEKAALDYWGQGTLVTVSSASTKGPSVFPLAPSSKSTSGGTAALGCLVEDYFPEPVTVSWNSGALTSGVHTFPAVLQSSGLYSLSSVVTVPSSSLGTQTYICNVNHKPSNTKVDEKVEPKSCDKTHTCPPCPAPEAAGGPSVFLFPPKPKDTLMISRTPEVTCVVVDVSHEDPEVKFNWYVDGVEVHNAKTKPREEQYNSTYRVVSVLTVLHQDWLNGKEYKCKVSNKALGAPIEKTISKAKGQPREPQVCTLPPSRDELTKNQVSLSCAVKGFYPSDIAVEWESNGQPENNYKTTPPVLDSDGSFFLVSKLTVDKSRWQQGNVFSCSVMHEALHNHYTQKSLSLSP
light 1: DIQMTQSPSSLSASVGDRVTITCRASGNIYNYLAWYQQKPGKVPKLLIYDAKTLADGVPSRFSGSGSGTDFTLTISSLQPEDVATYYCQHFWSLPFTFGQGTKLEIKRTVAAPSVFIFPPSDRKLKSGTASVVCLLNNFYPREAKVQWKVDNALQSGNSQESVTEQDSKDSTYSLSSTLTLSKADYEKHKVYACEVTHQGLSSPVTKSFNRGEC
light 2: EVQLLESGGGLVQPGGSLRLSCAASGFTFSTYAMNWVRQAPGKGLEWVSRIRSKYNNYATYYADSVKGRFTISRDDSKNTLYLQMNSLRAEDTAVYYCVRHGNFGNSYVSWFAYWGQGTLVTVSSASVAAPSVFIFPPSDEQLKSGTASVVCLLNNFYPREAKVQWKVDNALQSGNSQESVTEQDSKDSTYSLSSTLTLSKADYEKHKVYACEVTHQGLSSPVTKSFNRGEC

Assays:
[1] = molecular target: T1, EGFRvIII expressed on the cell surface (CHO-EGFRvIII, DK-MG, U87MG-EGFRvIII cells) (human, UniProt P00533 298-1210); assay: flow cytometry on U87MG-EGFRvIII cells, labelled anti-human Fc secondary antibody
T1 construct: also called EGFRvIII on cells
Protocol: (§1) Cells used for binding experiments were harvested, washed with PBS and resuspended in FACS buffer. The antibody staining was performed in a 96-well round bottom plate. Cells were harvested, counted and 100 000 to 200 000 cells were seeded per well. The plate was centrifuged for 4 min at 400×g and the supernatant was removed. The test antibodies were diluted in FACS buffer and 20 μl of the antibody solution were added to the cells for 30 min at 4° C. To remove unbound antibody the cells were washed twice with FACS buffer before addition of the diluted secondary antibody PE-conjugated AffiniPure F(ab′)2 Fragment goat anti-human IgG Fcg Fragment Specific (Jackson ImmunoResearch, #109-116-170 or #109-116-098). After 30 min incubation on 4° C. unbound secondary antibody was washed away. Before measurement the cells were resuspended in 200 μl FACS buffer and analyzed by flow cytometry using BD Canto II or BD FACS Fortessa.

[2] = molecular target: T1, EGFRvIII expressed on the cell surface …; assay: flow cytometry on U87MG-EGFRvIII cells, IgG PGLALA
Protocol: as §1

[3] = molecular target: TYRP1 on the primary melanoma cell line M150543 (human, UniProt P17643 25-537); assay: cell-based or functional assay

Binder	EC50 (read off the curve) [1] [nM]	EC50 (read off the curve) [2] [nM]	EC50 of tumor cell killing at 48 h, PBMC donor 1 [3] [nM]	EC50 of tumor cell killing at 48 h, PBMC donor 2 [3] [nM]	EC50 of tumor cell killing at 48 h, PBMC donor 3 [3] [nM]
B1	~4	~5			
B2	~5				
B3			0.31	0.03	0.08
B4	~10				
B5			0.44	0.05	0.14

Source: US20230416411A1 (Hoffmann-La Roche, published 2023)
